The text below walks through data of paper PMC4589512 (Nature cell biology, 2015).

The assay concerns the target CGG-CC1 (human, UniProt Q13586 233-343). Description: SPR.

Chain of CGG-CC1 (Q13586 233-343): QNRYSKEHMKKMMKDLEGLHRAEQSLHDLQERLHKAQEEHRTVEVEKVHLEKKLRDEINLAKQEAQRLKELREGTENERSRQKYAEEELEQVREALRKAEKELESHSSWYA

B1: STIMATE-CT (analyte of the SPR) (domain or fragment)
chain: DNFLMRKGKTKAKLEERGANQDSRNGSKVRYRRAASHEESESEILISADDEMEESDVEEDLRRLTPLKPVKKKKHRFGLPV
As a reminder, the Kd is a measure of binding affinity in units of concentration. A low value points to a tighter complex. Regarding B1, binding was put at a Kd of 8.9 ± 0.7 µM.
